Results published in patent US20220135684A1 (Xencor, published 2022).

What was measured:
human CD28 = target: T1, human CD28 (human, UniProt P10747 19-152); assay: Octet (BLI), scFv arm in the bsAb; value told in the text
T1 construct: also called Cluster of Differentiation 28; Tp44

human PDL1 antigen = target: T2, human PDL1 antigen (human, UniProt Q9NZQ7 19-238); assay: Biacore (SPR), Fab arm in a bsAb; value told in the text
T2 construct: they are put here

Row | Binder | Kd (human CD28) | Kd (human PDL1 antigen)
1 | XENP37561 (bispecific antibody, 1+1 Fab-scFv-Fc format; scFv in VL-linker-VH orientation; also called αPDL1×αCD28 bsAb; 1A7_L1.71_H1.14) heavy: EVQLLESGGGLVQPGGSLRLSCAASGFTFSSYDMSWVRQAPGKRLEWVSTISSGGSFTHYPDSVKGRFTISRDNSKNTLYLQMNSLRAEDTAVYYCVRRSGDWYFDVWGAGTTVTVSSASTKGPSVFPLAPSSKSTSGGTAALGCLVKDYFPEPVTVSWNSGALTSGVHTFPAVLQSSGLYSLSSVVTVPSSSLGTQTYICNVNHKPSDTKVDKKVEPKSCDKTHTCPPCPAPPVAGPSVFLFPPKPKDTLMISRTPEVTCVVVDVKHEDPEVKFNWYVDGVEVHNAKTKPREEEYNSTYRVVSVLTVLHQDWLNGKEYKCKVSNKALPAPIEKTISKAKGQPREPQVYTLPPSREEMTKNQVSLTCDVSGFYPSDIAVEWESDGQPENNYKTTPPVLDSDGSFFLYSKLTVDKSRWEQGDVFSCSVMHEALHNHYTQKSLSLSPGK scFv-Fc: not shown light: EIVLTQSPGTLSLSPGERATLSCRVSSSISSSNLHWYQQKPGQSPRPLIYGTSNLASGVPVRFSGSGSGTDYTLTISRLEPEDFAVYYCQQWSSYPLYTFGGGTKVEIKRTVAAPSVFIFPPSDEQLKSGTASVVCLLNNFYPREAKVQWKVDNALQSGNSQESVTEQDSKDSTYSLSSTLTLSKADYEKHKVYACEVTHQGLSSPVTKSFNRGEC | 37 nM | –
2 | αPDL1×αCD28 bsAb with PDL1 binding domain 2G4_H1.12_L1.66 and CD28 binding domain 1A7_H1.14_L1.71 (bispecific antibody) heavy: EVQLLESGGGLVQPGGSLRLSCAASGFTFSVYDMSWVRQAPGKRLEWVSTISSGGSFTHYPDSVKGRFTISRDNSKNTLYLQMNSLRAEDTAVYYCVRRSLDWYFDVWGAGTTVTVSSASTKGPSVFPLAPSSKSTSGGTAALGCLVKDYFPEPVTVSWNSGALTSGVHTFPAVLQSSGLYSLSSVVTVPSSSLGTQTYICNVNHKPSDTKVDKKVEPKSCDKTHTCPPCPAPPVAGPSVFLFPPKPKDTLMISRTPEVTCVVVDVKHEDPEVKFNWYVDGVEVHNAKTKPREEEYNSTYRVVSVLTVLHQDWLNGKEYKCKVSNKALPAPIEKTISKAKGQPREPQVYTLPPSREEMTKNQVSLTCDVSGFYPSDIAVEWESDGQPENNYKTTPPVLDSDGSFFLYSKLTVDKSRWEQGDVFSCSVMHEALHNHYTQKSLSLSPGK scFv-Fc: not shown light: EIVLTQSPGTLSLSPGERATLSCRVSSSIQSTNLHWYQQKPGQSPRPLIYGTSNLATGVPVRFSGSGSGTDYTLTISRLEPEDFAVYYCQQWSSYPLYTFGGGTKVEIKRTVAAPSVFIFPPSDEQLKSGTASVVCLLNNFYPREAKVQWKVDNALQSGNSQESVTEQDSKDSTYSLSSTLTLSKADYEKHKVYACEVTHQGLSSPVTKSFNRGEC | – | 0.86 nM
3 | XENP37559 (bispecific antibody, 1+1 Fab-scFv-Fc format; also called αPDL1×αCD28 bsAb; 1A7_H1_L1.71) heavy: EVQLLESGGGLVQPGGSLRLSCAASGFTFSSYDMSWVRQAPGKRLEWVSTISSGGSFTHYPDSVKGRFTISRDNSKNTLYLQMNSLRAEDTAVYYCVRRSGDWYFDVWGAGTTVTVSSASTKGPSVFPLAPSSKSTSGGTAALGCLVKDYFPEPVTVSWNSGALTSGVHTFPAVLQSSGLYSLSSVVTVPSSSLGTQTYICNVNHKPSDTKVDKKVEPKSCDKTHTCPPCPAPPVAGPSVFLFPPKPKDTLMISRTPEVTCVVVDVKHEDPEVKFNWYVDGVEVHNAKTKPREEEYNSTYRVVSVLTVLHQDWLNGKEYKCKVSNKALPAPIEKTISKAKGQPREPQVYTLPPSREEMTKNQVSLTCDVSGFYPSDIAVEWESDGQPENNYKTTPPVLDSDGSFFLYSKLTVDKSRWEQGDVFSCSVMHEALHNHYTQKSLSLSPGK scFv-Fc: not shown light: EIVLTQSPGTLSLSPGERATLSCRVSSSISSSNLHWYQQKPGQSPRPLIYGTSNLASGVPVRFSGSGSGTDYTLTISRLEPEDFAVYYCQQWSSYPLYTFGGGTKVEIKRTVAAPSVFIFPPSDEQLKSGTASVVCLLNNFYPREAKVQWKVDNALQSGNSQESVTEQDSKDSTYSLSSTLTLSKADYEKHKVYACEVTHQGLSSPVTKSFNRGEC | 180 nM | –
4 | αPDL1×αCD28 bsAb with PDL1 binding domain 2G4_H1.12_L1.24 and CD28 binding domain 1A7_H1.14_L1.71 (bispecific antibody, also called XENP38512; XENP40036) heavy: EVQLLESGGGLVQPGGSLRLSCAASGFTFSVYDMSWVRQAPGKRLEWVSTISSGGSFTHYPDSVKGRFTISRDNSKNTLYLQMNSLRAEDTAVYYCVRRSLDWYFDVWGAGTTVTVSSASTKGPSVFPLAPSSKSTSGGTAALGCLVKDYFPEPVTVSWNSGALTSGVHTFPAVLQSSGLYSLSSVVTVPSSSLGTQTYICNVNHKPSDTKVDKKVEPKSCDKTHTCPPCPAPPVAGPSVFLFPPKPKDTLMISRTPEVTCVVVDVKHEDPEVKFNWYVDGVEVHNAKTKPREEEYNSTYRVVSVLTVLHQDWLNGKEYKCKVSNKALPAPIEKTISKAKGQPREPQVYTLPPSREEMTKNQVSLTCDVSGFYPSDIAVEWESDGQPENNYKTTPPVLDSDGSFFLYSKLTVDKSRWEQGDVFSCSVMHEALHNHYTQKSLSLSPGK scFv-Fc: not shown light: EIVLTQSPGTLSLSPGERATLSCRVSSSIQSTNLHWYQQKPGQSPRPLIYGTSVLATGVPVRFSGSGSGTDYTLTISRLEPEDFAVYYCQQWSSYPLYTFGGGTKVEIKRTVAAPSVFIFPPSDEQLKSGTASVVCLLNNFYPREAKVQWKVDNALQSGNSQESVTEQDSKDSTYSLSSTLTLSKADYEKHKVYACEVTHQGLSSPVTKSFNRGEC | – | 0.17 nM
5 | XENP37560 (bispecific antibody, 1+1 Fab-scFv-Fc format; also called αPDL1×αCD28 bsAb; 1A7_H1.1_L1.71) heavy: EVQLLESGGGLVQPGGSLRLSCAASGFTFSSYDMSWVRQAPGKRLEWVSTISSGGSFTHYPDSVKGRFTISRDNSKNTLYLQMNSLRAEDTAVYYCVRRSGDWYFDVWGAGTTVTVSSASTKGPSVFPLAPSSKSTSGGTAALGCLVKDYFPEPVTVSWNSGALTSGVHTFPAVLQSSGLYSLSSVVTVPSSSLGTQTYICNVNHKPSDTKVDKKVEPKSCDKTHTCPPCPAPPVAGPSVFLFPPKPKDTLMISRTPEVTCVVVDVKHEDPEVKFNWYVDGVEVHNAKTKPREEEYNSTYRVVSVLTVLHQDWLNGKEYKCKVSNKALPAPIEKTISKAKGQPREPQVYTLPPSREEMTKNQVSLTCDVSGFYPSDIAVEWESDGQPENNYKTTPPVLDSDGSFFLYSKLTVDKSRWEQGDVFSCSVMHEALHNHYTQKSLSLSPGK scFv-Fc: not shown light: EIVLTQSPGTLSLSPGERATLSCRVSSSISSSNLHWYQQKPGQSPRPLIYGTSNLASGVPVRFSGSGSGTDYTLTISRLEPEDFAVYYCQQWSSYPLYTFGGGTKVEIKRTVAAPSVFIFPPSDEQLKSGTASVVCLLNNFYPREAKVQWKVDNALQSGNSQESVTEQDSKDSTYSLSSTLTLSKADYEKHKVYACEVTHQGLSSPVTKSFNRGEC | 96 nM | –
6 | XENP36233 (bispecific antibody, 1+1 Fab-scFv-Fc format, heterodimeric IgG1 Fc with FcγR ablation variants; also called αPDL1×αCD28 bsAb; 2G4 H1L1 Fab × 1A7_H1.14_L1 scFv) heavy: EVQLLESGGGLVQPGGSLRLSCAASGFTFSSYDMSWVRQAPGKRLEWVSTISSGGSFTHYPDSVKGRFTISRDNSKNTLYLQMNSLRAEDTAVYYCVRRSGDWYFDVWGAGTTVTVSSASTKGPSVFPLAPSSKSTSGGTAALGCLVKDYFPEPVTVSWNSGALTSGVHTFPAVLQSSGLYSLSSVVTVPSSSLGTQTYICNVNHKPSDTKVDKKVEPKSCDKTHTCPPCPAPPVAGPSVFLFPPKPKDTLMISRTPEVTCVVVDVKHEDPEVKFNWYVDGVEVHNAKTKPREEEYNSTYRVVSVLTVLHQDWLNGKEYKCKVSNKALPAPIEKTISKAKGQPREPQVYTLPPSREEMTKNQVSLTCDVSGFYPSDIAVEWESDGQPENNYKTTPPVLDSDGSFFLYSKLTVDKSRWEQGDVFSCSVMHEALHNHYTQKSLSLSPGK scFv-Fc: not shown light: EIVLTQSPGTLSLSPGERATLSCRVSSSISSSNLHWYQQKPGQSPRPLIYGTSNLASGVPVRFSGSGSGTDYTLTISRLEPEDFAVYYCQQWSSYPLYTFGGGTKVEIKRTVAAPSVFIFPPSDEQLKSGTASVVCLLNNFYPREAKVQWKVDNALQSGNSQESVTEQDSKDSTYSLSSTLTLSKADYEKHKVYACEVTHQGLSSPVTKSFNRGEC | 240 nM | –
7 | XENP37412 (bispecific antibody, 1+1 Fab-scFv-Fc format; scFv in VL-linker-VH orientation; also called αPDL1×αCD28 bsAb; 1A7_L1_H1.14) heavy: EVQLLESGGGLVQPGGSLRLSCAASGFTFSSYDMSWVRQAPGKRLEWVSTISSGGSFTHYPDSVKGRFTISRDNSKNTLYLQMNSLRAEDTAVYYCVRRSGDWYFDVWGAGTTVTVSSASTKGPSVFPLAPSSKSTSGGTAALGCLVKDYFPEPVTVSWNSGALTSGVHTFPAVLQSSGLYSLSSVVTVPSSSLGTQTYICNVNHKPSDTKVDKKVEPKSCDKTHTCPPCPAPPVAGPSVFLFPPKPKDTLMISRTPEVTCVVVDVKHEDPEVKFNWYVDGVEVHNAKTKPREEEYNSTYRVVSVLTVLHQDWLNGKEYKCKVSNKALPAPIEKTISKAKGQPREPQVYTLPPSREEMTKNQVSLTCDVSGFYPSDIAVEWESDGQPENNYKTTPPVLDSDGSFFLYSKLTVDKSRWEQGDVFSCSVMHEALHNHYTQKSLSLSPGK scFv-Fc: not shown light: EIVLTQSPGTLSLSPGERATLSCRVSSSISSSNLHWYQQKPGQSPRPLIYGTSNLASGVPVRFSGSGSGTDYTLTISRLEPEDFAVYYCQQWSSYPLYTFGGGTKVEIKRTVAAPSVFIFPPSDEQLKSGTASVVCLLNNFYPREAKVQWKVDNALQSGNSQESVTEQDSKDSTYSLSSTLTLSKADYEKHKVYACEVTHQGLSSPVTKSFNRGEC | 286 nM | –
8 | αPDL1×αCD28 bsAb with PDL1 binding domain 2G4_H1.12_L1.68 and CD28 binding domain 1A7_H1.14_L1.71 (bispecific antibody) heavy: EVQLLESGGGLVQPGGSLRLSCAASGFTFSVYDMSWVRQAPGKRLEWVSTISSGGSFTHYPDSVKGRFTISRDNSKNTLYLQMNSLRAEDTAVYYCVRRSLDWYFDVWGAGTTVTVSSASTKGPSVFPLAPSSKSTSGGTAALGCLVKDYFPEPVTVSWNSGALTSGVHTFPAVLQSSGLYSLSSVVTVPSSSLGTQTYICNVNHKPSDTKVDKKVEPKSCDKTHTCPPCPAPPVAGPSVFLFPPKPKDTLMISRTPEVTCVVVDVKHEDPEVKFNWYVDGVEVHNAKTKPREEEYNSTYRVVSVLTVLHQDWLNGKEYKCKVSNKALPAPIEKTISKAKGQPREPQVYTLPPSREEMTKNQVSLTCDVSGFYPSDIAVEWESDGQPENNYKTTPPVLDSDGSFFLYSKLTVDKSRWEQGDVFSCSVMHEALHNHYTQKSLSLSPGK scFv-Fc: not shown light: EIVLTQSPGTLSLSPGERATLSCRVSSSIQSTNLHWYQQKPGQSPRPLIYGTSNLASGVPVRFSGSGSGTDYTLTISRLEPEDFAVYYCQQWSSYPLYTFGGGTKVEIKRTVAAPSVFIFPPSDEQLKSGTASVVCLLNNFYPREAKVQWKVDNALQSGNSQESVTEQDSKDSTYSLSSTLTLSKADYEKHKVYACEVTHQGLSSPVTKSFNRGEC | – | 0.8 nM
9 | αPDL1×αCD28 bsAb with PDL1 binding domain 2G4_H1.12_L1.14 and CD28 binding domain 1A7_H1.14_L1.71 (bispecific antibody, also called XENP40409 (non-Xtend analog of XENP40706)) heavy: EVQLLESGGGLVQPGGSLRLSCAASGFTFSVYDMSWVRQAPGKRLEWVSTISSGGSFTHYPDSVKGRFTISRDNSKNTLYLQMNSLRAEDTAVYYCVRRSLDWYFDVWGAGTTVTVSSASTKGPSVFPLAPSSKSTSGGTAALGCLVKDYFPEPVTVSWNSGALTSGVHTFPAVLQSSGLYSLSSVVTVPSSSLGTQTYICNVNHKPSDTKVDKKVEPKSCDKTHTCPPCPAPPVAGPSVFLFPPKPKDTLMISRTPEVTCVVVDVKHEDPEVKFNWYVDGVEVHNAKTKPREEEYNSTYRVVSVLTVLHQDWLNGKEYKCKVSNKALPAPIEKTISKAKGQPREPQVYTLPPSREEMTKNQVSLTCDVSGFYPSDIAVEWESDGQPENNYKTTPPVLDSDGSFFLYSKLTVDKSRWEQGDVFSCSVMHEALHNHYTQKSLSLSPGK scFv-Fc: not shown light: EIVLTQSPGTLSLSPGERATLSCRVSSSIQSSNLHWYQQKPGQSPRPLIYGTSNLASGVPVRFSGSGSGTDYTLTISRLEPEDFAVYYCQQWSSYPLYTFGGGTKVEIKRTVAAPSVFIFPPSDEQLKSGTASVVCLLNNFYPREAKVQWKVDNALQSGNSQESVTEQDSKDSTYSLSSTLTLSKADYEKHKVYACEVTHQGLSSPVTKSFNRGEC | – | 0.42 nM
